According to the RNAGym collection of RNA variant scans (doi:10.1073/pnas.2313332121):
This sample holds only a part of the variants without activity.

B1: TPR 5TU (parent)
chain: GGAUCUUCUCGAUCUAACAAAAAAGACAAAUCUGCCACAAAGCUUGAGAGCAUCUUCGGAUGCAGAGGCGGCAGCCUUCGGUGGCGCGAUAGCGCCAACGUUCUCAACUAUGACACGCAAAACGCGUGCUCCGUUGAAUGGAGUUUAUCAUG

Variants of: B1
Assay: polymerase ribozyme fitness, log enrichment relative to wild type (log ratio); higher = more active; in vitro selection for triplet polymerase activity
Procedure, shortened: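 To select mutant libraries of each subunit of a heterodimeric triplet polymerase ribozyme, built by PCR and transcribed, each was annealed with a biotinylated primer, partner subunit and triplets, then incubated frozen at −7 °C. Extended constructs were gel-excised, captured on streptavidin beads and amplified by RT-PCR, in one round carried out in triplicate. Illumina sequencing of input and output libraries kept genotypes with ≥10 input reads and ≥1 read per output. Fitness is the base-2 logarithm of genotype enrichment relative to wild-type enrichment, from inverse-variance-weighted replicate averages.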
With A30C G67C G68A G88A C93A U135C G141C the “polymerase ribozyme fitness (log ratio)” value was no more than -4.2.
For G59A U90G C95G, the “polymerase ribozyme fitness (log ratio)” value was no more than -4.2.
In the case of U15G A17C C27G C51A G59A C75U C87U, the “polymerase ribozyme fitness (log ratio)” value is reported as no more than -4.2.
For C32U U33A U151A, the “polymerase ribozyme fitness (log ratio)” value was -4.18.
With A30U A52C U90C C93U C95U C96U A106G the “polymerase ribozyme fitness (log ratio)” value was no more than -4.2.
With C27U C36U the “polymerase ribozyme fitness (log ratio)” value was -2.88.
For A30G G46A A107U, the “polymerase ribozyme fitness (log ratio)” value was -4.03.
In the case of C5U C51A, the “polymerase ribozyme fitness (log ratio)” value is reported as -0.999.
For C5G C54U U56A C99U, the “polymerase ribozyme fitness (log ratio)” value was -1.99.
For U127G G141A, the “polymerase ribozyme fitness (log ratio)” value was -3.27.
In the case of C5U U15G U33C, the “polymerase ribozyme fitness (log ratio)” value is reported as -4.17.
In the case of U56A U148G, the “polymerase ribozyme fitness (log ratio)” value is reported as -3.6.
In the case of C51A C95U C118U U135A, the “polymerase ribozyme fitness (log ratio)” value is reported as -2.41.
With U55A C79A A121C the “polymerase ribozyme fitness (log ratio)” value was no more than -4.2.
For C79A G80A G81A G88U, the “polymerase ribozyme fitness (log ratio)” value was no more than -4.2.
For C103G G141U, the “polymerase ribozyme fitness (log ratio)” value was -3.36.
For C54U C85A, the “polymerase ribozyme fitness (log ratio)” value was -2.3.
With C54U C75G G81C U127A the “polymerase ribozyme fitness (log ratio)” value was no more than -4.2.
In the case of C5G C103A G117A, the “polymerase ribozyme fitness (log ratio)” value is reported as -2.88.
In the case of A16G A19U G48A C54A U101G C108A A137C A150C, the “polymerase ribozyme fitness (log ratio)” value is reported as no more than -4.2.
For U9A C43A A147U U151G, the “polymerase ribozyme fitness (log ratio)” value was no more than -4.2.
For A23U G46U C87U G88U A119G A120C G133U, the “polymerase ribozyme fitness (log ratio)” value was no more than -4.2.
With C14U A20C U33A C93G C103G C118U the “polymerase ribozyme fitness (log ratio)” value was no more than -4.2.
In the case of G59C G83U, the “polymerase ribozyme fitness (log ratio)” value is reported as 0.0759.
With A20U U45A C118A the “polymerase ribozyme fitness (log ratio)” value was -3.82.
In the case of A12C A17U U53A C96A U139G, the “polymerase ribozyme fitness (log ratio)” value is reported as -3.83.
For G11A C69U C87U G92C A150G, the “polymerase ribozyme fitness (log ratio)” value was -2.89.
For C5G C18U A21C G86A C105A C123G, the “polymerase ribozyme fitness (log ratio)” value was no more than -4.2.
With C96A G136A the “polymerase ribozyme fitness (log ratio)” value was -0.205.
In the case of C32A A39U C79A C85A C129G, the “polymerase ribozyme fitness (log ratio)” value is reported as no more than -4.2.
With A23C C38A C51U U55C A73G G92U C131U A138C the “polymerase ribozyme fitness (log ratio)” value was no more than -4.2.
For G74A G141U, the “polymerase ribozyme fitness (log ratio)” value was -2.35.
With C5U G46U C85G the “polymerase ribozyme fitness (log ratio)” value was -2.05.
In the case of U15G A21U A39G A47G G83A A142G, the “polymerase ribozyme fitness (log ratio)” value is reported as -3.92.
With U13G G68C G84A the “polymerase ribozyme fitness (log ratio)” value was no more than -4.2.
In the case of G25A U82C C105G A121U, the “polymerase ribozyme fitness (log ratio)” value is reported as -4.07.
For A47G C123G U151C, the “polymerase ribozyme fitness (log ratio)” value was -4.15.
For U13G A16U C85U U145G, the “polymerase ribozyme fitness (log ratio)” value was -3.16.
For C10U C35U A47C C85A A89C C93U C95U, the “polymerase ribozyme fitness (log ratio)” value was no more than -4.2.
In the case of A3G U9G A16G A21C G84A G133C G141A, the “polymerase ribozyme fitness (log ratio)” value is reported as no more than -4.2.
For A60G G117A, the “polymerase ribozyme fitness (log ratio)” value was 0.434.
In the case of C14G A22U A26G A28C U134A, the “polymerase ribozyme fitness (log ratio)” value is reported as no more than -4.2.
With C85U C95U the “polymerase ribozyme fitness (log ratio)” value was -1.72.
In the case of C18G C85A U145G A147U, the “polymerase ribozyme fitness (log ratio)” value is reported as -0.193.
In the case of G62C A115C, the “polymerase ribozyme fitness (log ratio)” value is reported as -1.06.
With A12G U56A U144A the “polymerase ribozyme fitness (log ratio)” value was 0.103.
In the case of A28U G50A C132U, the “polymerase ribozyme fitness (log ratio)” value is reported as no more than -4.2.
For G25U U148A, the “polymerase ribozyme fitness (log ratio)” value was no more than -4.2.
In the case of A16U A19U C103G, the “polymerase ribozyme fitness (log ratio)” value is reported as -4.18.
In the case of A60C, the “polymerase ribozyme fitness (log ratio)” value is reported as -0.597.
For C54U C57G G84U C85U C132U, the “polymerase ribozyme fitness (log ratio)” value was -3.94.
In the case of C96U A137U, the “polymerase ribozyme fitness (log ratio)” value is reported as -3.84.
With U4G G84A C87U A106C G141A U144G the “polymerase ribozyme fitness (log ratio)” value was no more than -4.2.
With A24U A49G A52C U53A U55A C69A the “polymerase ribozyme fitness (log ratio)” value was no more than -4.2.
In the case of A106G, the “polymerase ribozyme fitness (log ratio)” value is reported as 0.398.
For C27G A41C C54G C87G C114G C125A, the “polymerase ribozyme fitness (log ratio)” value was no more than -4.2.
For G83C U145G, the “polymerase ribozyme fitness (log ratio)” value was -0.686.
For U55A G67A C85U U90A A98U, the “polymerase ribozyme fitness (log ratio)” value was no more than -4.2.
For C76G C87A U111A, the “polymerase ribozyme fitness (log ratio)” value was no more than -4.2.
With A40C C85A the “polymerase ribozyme fitness (log ratio)” value was -2.39.
For A26U A47C A49C G80C C85A A113G A150U, the “polymerase ribozyme fitness (log ratio)” value was no more than -4.2.
For C69A A73G, the “polymerase ribozyme fitness (log ratio)” value was -2.98.
For C5G U15G A52G, the “polymerase ribozyme fitness (log ratio)” value was -1.06.
For C36A G59A U144G, the “polymerase ribozyme fitness (log ratio)” value was -3.49.
In the case of A30C A142C U144C, the “polymerase ribozyme fitness (log ratio)” value is reported as no more than -4.2.
In the case of G68A C93U A98U G117U, the “polymerase ribozyme fitness (log ratio)” value is reported as no more than -4.2.
For G50A C96A, the “polymerase ribozyme fitness (log ratio)” value was -2.68.
With A20U C54A C96G C108G U109G C118G C132A G143A U148A C149U the “polymerase ribozyme fitness (log ratio)” value was no more than -4.2.
With G58C the “polymerase ribozyme fitness (log ratio)” value was 0.0074.
In the case of A29U A39U U55A C79A C93G, the “polymerase ribozyme fitness (log ratio)” value is reported as no more than -4.2.
With U13A G94C the “polymerase ribozyme fitness (log ratio)” value was -1.19.
In the case of A107U A115G, the “polymerase ribozyme fitness (log ratio)” value is reported as -4.16.
With A49C G84C U90G C103G A115U the “polymerase ribozyme fitness (log ratio)” value was no more than -4.2.
With A47G A52G U56A C87G the “polymerase ribozyme fitness (log ratio)” value was no more than -4.2.
With A19U A49C A52G A106G the “polymerase ribozyme fitness (log ratio)” value was no more than -4.2.
In the case of C57U G140C, the “polymerase ribozyme fitness (log ratio)” value is reported as -3.55.
For U13C C69A C87G A97U A147U, the “polymerase ribozyme fitness (log ratio)” value was no more than -4.2.
In the case of G80A U146G U148C, the “polymerase ribozyme fitness (log ratio)” value is reported as -3.91.
For A16U U53A G80U C85U G152U, the “polymerase ribozyme fitness (log ratio)” value was no more than -4.2.
For G67C G86C C96A G112U A113U G126U, the “polymerase ribozyme fitness (log ratio)” value was no more than -4.2.
In the case of A12G C87U, the “polymerase ribozyme fitness (log ratio)” value is reported as -0.54.
In the case of G11A A23U U53A G92U C108U A142U, the “polymerase ribozyme fitness (log ratio)” value is reported as no more than -4.2.
With G59A A119U the “polymerase ribozyme fitness (log ratio)” value was -0.778.
In the case of G81C G94U A98U U146G, the “polymerase ribozyme fitness (log ratio)” value is reported as -0.695.
